The test addresses MT-100. Kind of test: BLI. On the technique in general: In BLI a coated tip is dipped into the sample, and binding shifts an interference pattern.

B1: extracellular domain of human Tie2 fused with Fc (hTie2-ECD-Fc) (Fc fusion)
chain: AMDLILINSLPLVSDAETSLTCIASGWRPHEPITIGRDFEALMNQHQDPLEVTQDVTREWAKKVVWKREKASKINGAYFCEGRVRGEAIRIRTMKMRQQASFLPATLTMTVDKGDNVNISFKKVLIKEEDAVIYKNGSFIHSVPRHEVPDILEVHLPHAQPQDAGVYSARYIGGNLFTSAFTRLIVRRCEAQKWGPECNHLCTACMNNGVCHEDTGECICPPGFMGRTCEKACELHTFGRTCKERCSGQEGCKSYVFCLPDPYGCSCATGWKGLQCNEACHPGFYGPDCKLRCSCNNGEMCDRFQGCLCSPGWQGLQCEREGIQRMTPKIVDLPDHIEVNSGKFNPICKASGWPLPTNEEMTLVKPDGTVLHPKDFNHTDHFSVAIFTIHRILPPDSGVWVCSVNTVAGMVEKPFNISVKVLPKPLNAPNVIDTGHNFAVINISSEPYFGDGPIKSKKLLYKPVNHYEAWQHIQVTNEIVTLNYLEPRTEYELCVQLVRRGEGGEGHPGPVRRFTTASIGLPPPRGLNLLPKSQTTLNLTWQPIFPSSEDDFYVEVERRSVQKSDQQNIKVPGNLTSVLLNNLHPREQYVVRARVNTKAQGEWSEDLTAWTLSDILPPQPENIKISNITHSSAVISWTILDGYSISSITIRYKVQGKNEDQHVDVKIKNATITQYQLKGLEPETAYQVDIFAENNIGSSNPAFSHELVTLPESQAPADLGGGKMLL
What is called Kd is the free concentration of one partner at which half of the binding sites on the other are occupied at equilibrium, for simple one-to-one binding. Higher therefore signals a looser complex. As a reminder, the koff is a measure of how fast the partners let go of each other. Molecule B1 gave a Kd of 2.5 nM and an off-rate constant (koff) of 0.0011 s⁻¹.

Values taken from publication PMC11799434 (2025).
